From PMC7763939

Key:
[1] = target: PKSIII Mo29 Red (truncated/reduced type III polyketide synthase of Naganishia uzbekistanensis strain Mo29, without the 74 aa C-terminus extension) (Naganishia uzbekistanensis strain Mo29 (UBOCC-A-208024)); test: SEC + other: dynamic light scattering; Sephacryl-200 gel filtration column, 50 mM Tris-HCl pH 7.5, 200 mM NaCl, size calculated with marker; DLS on a DynaPro-801; monomer to dimer
[2] = target: PKSIII Mo29 Std (type III polyketide synthase of Naganishia uzbekistanensis strain Mo29, whole protein with the C-terminus extension) (Naganishia uzbekistanensis strain Mo29 (UBOCC-A-208024)); test: as above

stoichiometry N [1]	stoichiometry N [2]	Substance
2		PKSIII Mo29 Red (truncated/reduced type III polyketide synthase of Naganishia uzbekistanensis strain Mo29, without the 74 aa C-terminus extension) (domain or fragment)
	2	PKSIII Mo29 Std (type III polyketide synthase of Naganishia uzbekistanensis strain Mo29, whole protein with the C-terminus extension) (enzyme)
